The results in this text go back to patent publication US20250026816A1, “Antibodies for Use as Therapeutics Against Bacterial Infections” (priority 2021, published 2025).

In test [1] the target is T1, Oxa-23 carbapenemase enzyme (Acinetobacter baumannii, UniProt Q9L4P2 18-273).
T1 construct: No signal peptide cleavage site is stated; also called class D beta-lactamase; 30kD protein
Kind of test: binding to Oxa-23 on A. baumannii OMVs; method not given at this place.

The target of test [2] is T2, Oxa-23 (Acinetobacter baumannii, UniProt Q9L4P2).
T2 construct: endogenous in cells; host or cells: OMVs of GC2 A. baumannii clinical strains
T2 sequence (Q9L4P2 18-273): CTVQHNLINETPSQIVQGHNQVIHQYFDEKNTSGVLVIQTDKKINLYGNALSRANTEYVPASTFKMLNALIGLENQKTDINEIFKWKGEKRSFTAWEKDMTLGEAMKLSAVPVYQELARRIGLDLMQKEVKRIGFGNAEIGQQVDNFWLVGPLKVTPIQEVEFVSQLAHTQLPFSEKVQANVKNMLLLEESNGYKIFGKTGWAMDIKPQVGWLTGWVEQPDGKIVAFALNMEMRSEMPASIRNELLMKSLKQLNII
Kind of test: Specific binding to Oxa-23 on OMVs (summary statement). The settings on record: on outer membrane vesicles (OMVs) of Acinetobacter baumannii bacteria.

Test [3] concerns the target T1, Oxa-23 carbapenemase enzyme. The test can be described thus: serological expression cloning: mAb screened on plaques of a phage expression library of A. baumannii genomic DNA (BAL 084, BAL 276), bound phage sequenced.
Test [4] has as its target T2, Oxa-23. The test can be described thus: Phage expression library screen (serological expression cloning) for antigen identification. The test is classed as binding. To be noted: phage expression library of genomic DNA from strains BAL 084 and BAL 276. The text has this:
The particular binding antigen (e.g. Oxa-23, OC1 LOS, or KL49) of an antibody may be determined using a phage expression library e.g. as described in Example 5. For example, shotgun A. Baumannii genomic DNA is incorporated into a phage expression library. The antibody is then screened for reactivity with phage plaques from the expression library and the individual phage binding to the antibody is identified. The identified phage is sequenced, and the sequencing information used to elucidate the binding antigen of the antibody. A suitable phage method for antigen identification will be known to a person skilled in the art. For example, a suitable phage method is described in Lodes M J, Dillon D C, Houghton R L, Skeiky Y A. Expression cloning. Methods Mol Med. 2004; 94:91-106. doi: 10.1385/1-59259-679-7:91. PMID: 14959824, the contents of which are incorporated by reference.
Focusing on the cross-reactive mAbs identified, we used a phage expression library incorporating shotgun A. baumannii genomic DNA from strains BAL 084 and BAL 276. […] The LOS types were determined for a selection of isolates by OCL specific PCR. […] Next, LOS was extracted (with extensive proteinase K treatment to remove any proteins) and analyzed by Western blot using mAb 1042). […] Capsule antigens were extracted from selected strains bearing KL49 and analyzed by subsequent SDS-PAGE and Western blot analysis using the mAb 1416.

Another test deals with E. coli NCTC 13441 LPS. Kind of test: Western blot of extracted LPS (control). The test is classed as binding. To be noted: E. coli NCTC13441 (025b). An excerpt: (§1) Focusing on the cross-reactive mAbs identified, we used a phage expression library incorporating shotgun A. baumannii genomic DNA from strains BAL 084 and BAL 276. Because the mAbs could potentially bind a polypeptide epitope, we screened mAbs for reactivity with phage plaques from the phage expression library. Using this screening mechanism, we were able to identify individual phage binding to Abs 1348, 1349. By sequencing the phage, we were able to elucidate 1348 and 1349 bound Oxa-23, a class D […] that is a major group of enzymes involved in resistance to carbapenem antibiotics. That we have identified mAbs binding to Oxa-23 in a target agnostic screen is highly significant. […] Secondly, since Oxa-23 is a functional enzyme that inactivates carbapenem and carbapenem resistance is a major clinical issue for the treatment of nosocomial A. baumannii infection, it may be possible to block enzymatic function of Oxa-23 by mAbs and render A. baumannii susceptible to carbapenems. […] The LOS types were determined for a selection of isolates by OCL specific PCR. […] Next, LOS was extracted (with extensive proteinase K treatment to remove any proteins) and analyzed by Western blot using mAb 1042). […] Capsule antigens were extracted from selected strains bearing KL49 and analyzed by subsequent SDS-PAGE and Western blot analysis using the mAb 1416.
Background: A western blot detects proteins with antibodies after separation by electrophoresis.

The next test relates to OC1 LOS. The test can be described thus: Western blot of extracted LOS. The test is classed as binding, Acinetobacter baumannii.
From the text: as §1

T1 sequence (Q9L4P2 18-273 limits assumed): as the sequence (Q9L4P2 18-273) above

B1: Antibody 1548 (antibody, V domains shown)
VH: QVQLVESGGGVVQPGRSLRLSCAASGFTFSSYAMHWVRQAPGKGLEWVAVISYDGSNKYYADSVKGRFTISRDNSKNTLYLQMNSLRAEDTAVYYCAGYGGNSLDPWGQGTLVTVSS
VL: AIQMTQSPSSLSASVGDRVTITCRASQGIRNDLVWYQQKPGKAPKVLIYDASSLQSGVPSRFSGSGFGTDFTLTISSLQPEDFATYYCLQDYNYPCSFGQGTKLEIK
notes: also called PPB-1548
Turning to B1, the binding result in test [1] is recorded as “binds”. Further, the “specific binding to Oxa-23” value with Oxa-23 [2] is on record as “specifically bind to Oxa-23”.

B2: Antibody 1348 (antibody, V domains shown)
VH: EVQLVESGGGFVQPGRSLRLSCIASGFTFDDYAMHWVRQTPGKGLEWVSVISWNSVSIGYADSVKGRFTISRDNAKNSLYLQMNSLRAEDTALYYCARYSSGPDAFDIWGQGTMVTVSS
VL: DIQMTQSPSSLSASVGDRVTITCRASQDIRNDLGWYQQKPGKAPKRLIYAASSLQSGVPSRFSGSGFGTEFTLTISSLQPEDFATYYCLQHYTYPPTFGGGTRVEIK
notes: Only variable domains are tied to 1348; also called PPB-1348
As for B2, the binding result in test [3] is listed as “binds”.

B3: 1348 (antibody, V domains shown)
VH: EVQLVESGGGFVQPGRSLRLSCIASGFTFDDYAMHWVRQTPGKGLEWVSVISWNSVSIGYADSVKGRFTISRDNAKNSLYLQMNSLRAEDTALYYCARYSSGPDAFDIWGQGTMVTVSS
VL: DIQMTQSPSSLSASVGDRVTITCRASQDIRNDLGWYQQKPGKAPKRLIYAASSLQSGVPSRFSGSGFGTEFTLTISSLQPEDFATYYCLQHYTYPPTFGGGTRVEIK
Consider B3, for which the “antigen bound, elucidated by sequencing the binding phage” value in the test with Oxa-23 [4] is recorded as “bound Oxa-23”. In the test with Oxa-23 [2], the “specific binding to Oxa-23” value is recorded as “specifically bind to Oxa-23”.

B4: 1540 (antibody, V domains shown)
VH: EVQLVESGGGFVQPGRSLRLSCIASGFTFDDYAMHWVRQTPGKGLEWVSVISWNSVSIGYADSVKGRFTISRDNAKNSLYLQMNSLRAEDTALYYCARYSSGPDAFDIWGQGTMVTVSS
VL: DIQMTQSPSSLSASVGDRVTITCRASQDIRNDLGWYQQKPGKAPKRLIYAASSLQSGVPSRFSGSGFGTEFTLTISSLQPEDFATYYCLQHYTYPPTFGGGTRVEIK
Regarding B4, in the test with Oxa-23 [2], the “specific binding to Oxa-23” value is “specifically bind to Oxa-23”.

B5: Antibody 1540 (antibody, V domains shown)
VH: EVQLVESGGGFVQPGRSLRLSCIASGFTFDDYAMHWVRQTPGKGLEWVSVISWNSVSIGYADSVKGRFTISRDNAKNSLYLQMNSLRAEDTALYYCARYSSGPDAFDIWGQGTMVTVSS
VL: DIQMTQSPSSLSASVGDRVTITCRASQDIRNDLGWYQQKPGKAPKRLIYAASSLQSGVPSRFSGSGFGTEFTLTISSLQPEDFATYYCLQHYTYPPTFGGGTRVEIK
notes: also called PPB-1540
B5: in test [1], the binding result is reported as “binds”.

B6: Antibody 1349 (antibody, V domains shown)
VH: QITLKESGPTLVKPTQTLTLTCTFSGFSLSTSGVGVGWIRQPPGKALEWLALIYWDDDKRYSPSLKSRLTITKDTSKNQVVLTMTNMDPVDTATYYCAHSYYYDSSDSYYFDYWGQGTLVTVSS
VL: DIQLTQSPSFLSASVGDRVTITCWASQGISSRLAWYQQKPGKAPKLLIYAASTLQSGVPSRFSGSGSGTEFTLTISSLQPEDFGNYYCQQFNTYPFTFGPGTKVDIKR
notes: It was expressed as human IgG1; also called PPB-1349
For the molecule B6, the binding result in test [3] is reported as “binds”.

B7: Antibody 1042: anti-OC1 LOS antibody; VH SEQ ID No: 188, VL SEQ ID No: 191 (antibody, V domains shown)
VH: QITLKESGPTLVKPTQTLTLTCTFSGFSLSTSGVGVGWIRQPPGKALEWLAVIYWDDDKRYSPSLKSRVTITKDTSKNQVVLTMTNMDPVDTATYYCAHSYYHDSSDSYYFDYWAQGTLVTVSS
VL: DIQLTQSPSFLSASVGDRVTITCWASQGISSRLAWYQQKPGKAPKLLIYAASTLQSGVPSRFSGSGSGTEFTLTISSLQPEDFATYYCQQLTSYPFTFGPGTKVDIK
Take B7: in the test with E. coli NCTC 13441 LPS, the “binding to extracted LPS” value is given as “no binding”. The “binding to extracted LOS” value with OC1 LOS (ATCC 17978 (OCL2)) is “no binding”. For the same molecule, the “binding to 10kD target in extracted LOS” value in the test with OC1 LOS (OC1 isolates A. baumannii BAL_191, BAL_339, BAL_372) is recorded as “Specific binding”.

B8: Antibody 1550 (antibody, V domains shown)
VH: QVQLVESGGGVVQPGRSLRLSCAASGFTFSSYGMHWVRQAPGKGLEWVAVISYDGSNKYYADSVKGRFTISRDNSKNTLYLQMNSLRAEDTAVYYCAKESLTMVRGEGFDPWGQGTLVTVSS
VL: DIQMTQSPSSVSASVGDRVTITCRASQGISSWLAWYQQKPGKAPKLLIYAASSLQSGVPSRFSGSGSGTDFTLTISSLQPEDFATYYCQQANSFPCSFGQGTKLEIK
notes: also called PPB-1550
B8: the binding result in test [1] is listed as “binds”. The “specific binding to Oxa-23” value with Oxa-23 [2] is recorded as “specifically bind to Oxa-23”.
